Residue numbers refer to the chain shown, from its start. Names may count otherwise.
What was measured:
Assay type in all cases: cell-based, human
[1] = test system: wild-type and variant SNAP-GIPR; assay: Constitutive and agonist-mediated internalization, reversible SNAP-tag labelling, AD293 cells; design: key to Internalisation, Vehicle / Internalisation, +GIP / Internalisation, GIP-only: % internalization: residual fluorescence after Mesna vs pre-Mesna; Surface expression: unit not given here; conditions: Mean; for +GIP internalisation (100 nM) / GIP-specific internalisation (100 nM) / Constitutive internalisation (100 nM) / Surface expression: Fig 4E; for +GIP internalisation (100 nM) / GIP-specific internalisation (100 nM): GIP 100 nM; for Internalisation, +GIP / Internalisation, GIP-only / Internalisation, Vehicle: Fig S4C, AD293
Method in brief: (§1)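 % internalization = residual specific fluorescence after Mesna / pre-Mesna value. Imaging in TNE buffer pH 8.6; second image 10 min post-Mesna.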

[2] = test system: wild-type and variant SNAP-GIPR; assay: cADDis cAMP imaging in AD293 cells, ensemble, expression-matched and per decile; conditions: Fig S3F, cADDis, mean;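 note: Ensemble cells as % of IBMX/FSK response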
Method in brief: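 Variants and wild type ran in parallel in transfected AD293 cells carrying cADDis. Single-cell sensor intensity, with nonresponders to IBMX/FSK removed, was paired with SNAP-Surface 647 labeling to allow expression-matched analysis.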

[3] = test system: wild-type and variant SNAP-GIPR; assay: Surface SNAP-GIPR expression (SNAP-tag labelling) in AD293 cells; conditions: for AD293 Surface: Fig S3E, mean; for Surface SNAP-GIPR expression: sheet Fig 1C;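 for all read-outs here: scaled to the experimental average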
Method in brief: (§2)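 Surface GIPR is quantified from wide-field images after labelling intact transfected cells with a membrane-impermeant SNAP probe at 500 nM for 10 min at room temperature. Specific signal, corrected for nontransfected cells, is normalized to the experiment-wide average or to wild-type.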

[4] = test system: wild-type and variant SNAP-GIPR; assay: Single-concentration GIP cAMP response by HTRF in AD293 cells; conditions: Fig S3F, HTRF, mean;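 note: ratio to experiment-wide average response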
Description: (§3) All variants were tested in parallel on each occasion to control for transfection efficiency differences between experiments.

[5] = test system: wild-type and variant SNAP-GIPR; assay: Constitutive and agonist-mediated internalization, reversible SNAP-tag labelling, INS-1 cells; design: key to Internalisation, GIP-only / Internalisation, Vehicle / Internalisation, +GIP: % internalization: residual fluorescence after Mesna vs pre-Mesna; conditions: Mean; for +GIP internalisation (100 nM) / GIP-specific internalisation (100 nM) / Constitutive internalisation (100 nM): Fig 4G; for +GIP internalisation (100 nM) / GIP-specific internalisation (100 nM): GIP 100 nM; for Internalisation, +GIP / Internalisation, GIP-only / Internalisation, Vehicle: Fig S4C, INS-1
Method in brief: as §1

[6] = test system: wild-type and variant SNAP-GIPR; assay: Surface SNAP-GIPR expression (SNAP-tag labelling) in INS-1 cells; conditions: Fig 4G; Mean
Method in brief: as §2

[7] = test system: wild-type and variant SNAP-GIPR; assay: Single-concentration GIP cAMP response by HTRF in INS-1 cells; conditions: Fig S3E, mean
Description: as §3

[8] = column repeated, paired with cAMP 100 nM

B1: I403V (protein, UniProt P48546 22-466, looked up, variant I403V)
Gastric inhibitory …: RAETGSKGQTAGELYQRWERYRRECQETLAAAEPPSGLACNGSFDMYVCWDYAAPNATARASCPWYLPWHHHVAAGFVLRQCGSDGQWGLWRDHTQCENPEKNEAFLDQRLILERLQVMYTVGYSLSLATLLLALLILSLFRRLHCTRNYIHINLFTSFMLRAAAILSRDRLLPRPGPYLGDQALALWNQALAACRTAQIVTQYCVGANYTWLLVEGVYLHSLLVLVGGSEEGHFRYYLLLGWGAPALFVIPWVIVRYLYENTQCWERNEVKAIWWIIRTPILMTILINFLIFIRILGILLSKLRTRQMRCRDYRLRLARSTLTLVPLLGVHEVVFAPVTEEQARGALRFAKLGFEIFLSSFQGFLVSVLYCFINKEVQSEVRRGWHHCRLRRSLGEEQRQLPERAFRALPSGSGPGEVPTSRGLSSGTLPGPGNEASRELESYC
For B1, the “+GIP internalisation (100 nM)” value [1] was 0.6419, the “GIP-specific internalisation (100 nM)” value [1] was 0.176 and the “Constitutive internalisation (100 nM)” value [1] was 0.4659. The Surface expression [1] was 1.133, the “Internalisation, +GIP” value [1] was 57.0289 and the “Internalisation, GIP-only” value [1] was 15.5744. The “Internalisation, Vehicle” value [1] was 41.4545, the “AD293 100 pM cADDis” value [2] was 32.3253 and the “AD293 100 nM cADDis” value [2] was 38.62. The “AD293 Surface” value [3, 8] was 1.077, the “AD293 Surface” value ([3]; paired with cAMP 100 pM) was 1.077 and the “Surface SNAP-GIPR expression” value ([3]; replicate 1) was 1.081. For the same molecule, the “Surface SNAP-GIPR expression” value ([3]; replicate 2) was 1.363, the “Surface SNAP-GIPR expression” value ([3]; replicate 3) was 0.2202 and the “Surface SNAP-GIPR expression” value ([3]; replicate 4) was 1.549. The “Surface SNAP-GIPR expression” value ([3]; replicate 5) was 1.258, the “Surface SNAP-GIPR expression” value ([3]; replicate 6) was 1.264 and the “Surface SNAP-GIPR expression” value ([3]; replicate 7) was 0.985. The “Surface SNAP-GIPR expression” value ([3]; replicate 8) was 0.9444, the “Surface SNAP-GIPR expression” value ([3]; replicate 9) was 1.045 and the “Surface SNAP-GIPR expression” value ([3]; replicate 10) was 1.237. For the same molecule, the “Surface SNAP-GIPR expression” value ([3]; replicate 11) was 0.9384, the “Surface SNAP-GIPR expression” value ([3]; replicate 12) was 0.958 and the “Surface SNAP-GIPR expression” value ([3]; replicate 13) was 1.387. The “Surface SNAP-GIPR expression” value ([3]; replicate 14) was 1.061, the “Surface SNAP-GIPR expression” value ([3]; replicate 15) was 1.05 and the “Surface SNAP-GIPR expression” value ([3]; replicate 16) was 0.9753. For the same molecule, the “Surface SNAP-GIPR expression” value ([3]; replicate 17) was 1.072, the “Surface SNAP-GIPR expression” value ([3]; replicate 18) was 0.9656 and the “Surface SNAP-GIPR expression” value ([3]; replicate 19) was 0.8084. For the same molecule, the “Surface SNAP-GIPR expression” value ([3]; replicate 20) was 1.091, the “Surface SNAP-GIPR expression” value ([3]; replicate 21) was 0.9955 and the “Surface SNAP-GIPR expression” value ([3]; replicate 22) was 1.089. The “Surface SNAP-GIPR expression” value ([3]; replicate 23) was 1.06, the “Surface SNAP-GIPR expression” value ([3]; replicate 24) was 1.048 and the “Surface SNAP-GIPR expression” value ([3]; replicate 25) was 0.9764. For the same molecule, the “Surface SNAP-GIPR expression” value ([3]; replicate 26) was 0.8875, the “Surface SNAP-GIPR expression” value ([3]; replicate 27) was 0.9058 and the “Surface SNAP-GIPR expression” value ([3]; replicate 28) was 1.123. The “Surface SNAP-GIPR expression” value ([3]; replicate 29) was 1.103, the “Surface SNAP-GIPR expression” value ([3]; replicate 30) was 1.39 and the “Surface SNAP-GIPR expression” value ([3]; replicate 31) was 1.166. For the same molecule, the “Surface SNAP-GIPR expression” value ([3]; replicate 32) was 1.223, the “Surface SNAP-GIPR expression” value ([3]; replicate 33) was 1.12 and the “Surface SNAP-GIPR expression” value ([3]; replicate 34) was 1.156. For the same molecule, the “Surface SNAP-GIPR expression” value ([3]; replicate 35) was 1.076, the “Surface SNAP-GIPR expression” value ([3]; replicate 36) was 1.273 and the “Surface SNAP-GIPR expression” value ([3]; replicate 37) was 1.139. For the same molecule, the “Surface SNAP-GIPR expression” value ([3]; replicate 38) was 1.049, the “Surface SNAP-GIPR expression” value ([3]; replicate 39) was 1.042 and the “Surface SNAP-GIPR expression” value ([3]; replicate 40) was 1.006. The “Surface SNAP-GIPR expression” value ([3]; replicate 41) was 1.094, the “AD293 100 pM HTRF” value [4] was 1.267 and the “AD293 100 nM HTRF” value [4] was 1.595. The “+GIP internalisation (100 nM)” value [5] was 0.5388, the “GIP-specific internalisation (100 nM)” value [5] was 0.1314 and the “Constitutive internalisation (100 nM)” value [5] was 0.4074. The “Internalisation, +GIP” value [5] was 49.7833, the “Internalisation, GIP-only” value [5] was 12.345 and the “Internalisation, Vehicle” value [5] was 37.4383. The Surface expression [6] was 1.09 and the “INS-1 cAMP (100 nM)” value [7] was 1.36.

B2: R336P (protein, UniProt P48546 22-466, looked up, variant R336P)
Gastric inhibitory …: B1 Gastric inhibitory … with R315P, V382I
In the case of B2, the “+GIP internalisation (100 nM)” value [1] is reported as 0.6438, the “GIP-specific internalisation (100 nM)” value [1] is reported as 0.1531 and the “Constitutive internalisation (100 nM)” value [1] is reported as 0.4907. The Surface expression [1] was 1.092, the “Internalisation, +GIP” value [1] was 55.5681 and the “Internalisation, GIP-only” value [1] was 13.0056. The “Internalisation, Vehicle” value [1] was 42.5625, the “AD293 100 pM cADDis” value [2] was 30.0491 and the “AD293 100 nM cADDis” value [2] was 33.63. The “AD293 Surface” value [3, 8] was 0.9922, the “AD293 Surface” value ([3]; paired with cAMP 100 pM) was 0.9922 and the “Surface SNAP-GIPR expression” value ([3]; replicate 1) was 1.065. The “Surface SNAP-GIPR expression” value ([3]; replicate 2) was 0.5013, the “Surface SNAP-GIPR expression” value ([3]; replicate 3) was 1.132 and the “Surface SNAP-GIPR expression” value ([3]; replicate 4) was 0.7089. The “Surface SNAP-GIPR expression” value ([3]; replicate 5) was 1.372, the “Surface SNAP-GIPR expression” value ([3]; replicate 6) was 0.9533 and the “Surface SNAP-GIPR expression” value ([3]; replicate 7) was 1.085. For the same molecule, the “Surface SNAP-GIPR expression” value ([3]; replicate 8) was 0.9069, the “Surface SNAP-GIPR expression” value ([3]; replicate 9) was 0.9059 and the “Surface SNAP-GIPR expression” value ([3]; replicate 10) was 0.7148. The “Surface SNAP-GIPR expression” value ([3]; replicate 11) was 1.055, the “Surface SNAP-GIPR expression” value ([3]; replicate 12) was 1.013 and the “Surface SNAP-GIPR expression” value ([3]; replicate 13) was 0.7103. For the same molecule, the “Surface SNAP-GIPR expression” value ([3]; replicate 14) was 1.142, the “Surface SNAP-GIPR expression” value ([3]; replicate 15) was 0.8074 and the “Surface SNAP-GIPR expression” value ([3]; replicate 16) was 0.9322. The “Surface SNAP-GIPR expression” value ([3]; replicate 17) was 0.8667, the “Surface SNAP-GIPR expression” value ([3]; replicate 18) was 1.004 and the “Surface SNAP-GIPR expression” value ([3]; replicate 19) was 0.9824. For the same molecule, the “Surface SNAP-GIPR expression” value ([3]; replicate 20) was 1.058, the “Surface SNAP-GIPR expression” value ([3]; replicate 21) was 0.9727 and the “Surface SNAP-GIPR expression” value ([3]; replicate 22) was 0.8965. For the same molecule, the “Surface SNAP-GIPR expression” value ([3]; replicate 23) was 0.778, the “Surface SNAP-GIPR expression” value ([3]; replicate 24) was 0.7544 and the “Surface SNAP-GIPR expression” value ([3]; replicate 25) was 1.062. The “Surface SNAP-GIPR expression” value ([3]; replicate 26) was 1.025, the “Surface SNAP-GIPR expression” value ([3]; replicate 27) was 0.9727 and the “Surface SNAP-GIPR expression” value ([3]; replicate 28) was 0.7869. For the same molecule, the “Surface SNAP-GIPR expression” value ([3]; replicate 29) was 1.148, the “Surface SNAP-GIPR expression” value ([3]; replicate 30) was 1.341 and the “Surface SNAP-GIPR expression” value ([3]; replicate 31) was 1.222. The “Surface SNAP-GIPR expression” value ([3]; replicate 32) was 1.042, the “Surface SNAP-GIPR expression” value ([3]; replicate 33) was 1.006 and the “Surface SNAP-GIPR expression” value ([3]; replicate 34) was 0.7344. The “Surface SNAP-GIPR expression” value ([3]; replicate 35) was 1.077, the “Surface SNAP-GIPR expression” value ([3]; replicate 36) was 1.167 and the “Surface SNAP-GIPR expression” value ([3]; replicate 37) was 1.212. For the same molecule, the “Surface SNAP-GIPR expression” value ([3]; replicate 38) was 1.22, the “Surface SNAP-GIPR expression” value ([3]; replicate 39) was 1.259 and the “Surface SNAP-GIPR expression” value ([3]; replicate 40) was 1.054. For the same molecule, the “Surface SNAP-GIPR expression” value ([3]; replicate 41) was 1.032, the “AD293 100 pM HTRF” value [4] was 1.285 and the “AD293 100 nM HTRF” value [4] was 1.143. The “+GIP internalisation (100 nM)” value [5] was 0.578, the “GIP-specific internalisation (100 nM)” value [5] was 0.1817 and the “Constitutive internalisation (100 nM)” value [5] was 0.3963. For the same molecule, the “Internalisation, +GIP” value [5] was 55.395, the “Internalisation, GIP-only” value [5] was 16.7483 and the “Internalisation, Vehicle” value [5] was 38.6467. The Surface expression [6] was 0.9442 and the “INS-1 cAMP (100 nM)” value [7] was 0.7986.

From paper PMC13544220, “Glycemic and bodyweight effects of GIPR coding variation reflect differences in surface expression and intrinsic functional impairment” (Science Advances, 2026)
